The values below are quoted from earlier work in paper PMC10979101.

The data set addresses Gab2 503-524 (Homo sapiens) (UniProt Q9UQC2).
Chain of UniProt Q9UQC2 (Q9UQC2 503-524): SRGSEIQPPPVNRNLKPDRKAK

For the substance Grb2 C-SH3 C-SH3 (from UniProt P62993), the Kd was 1700 nM.
